Substrate in series [1]: C[C@H](N)C(=O)O
Briefly: purified protein, by the assay type. The settings on record: other: 15 mM 2-oxoglutarate.

Substrate in series [2]: N[C@@H](CC(=O)O)C(=O)O
Briefly: purified protein, by the assay type.

B1: ALT (alanine 2-oxoglutarate aminotransferase) (Homo sapiens) (protein)
chain: ASSTGDRSQAVRHGLRAKVLTLDGMNPRVRRVEYAVRGPIVQRALELEQELRQGVKKPFTEVIRANIGDAQAMGQRPITFLRQVLALCVNPDLLSSPNFPDDAKKRAERILQACGGHSLGAYSVSSGIQLIREDVARYIERRDGGIPADPNNVFLSTGASDAIVTVLKLLVAGEGHTRTGVLIPIPQYPLYSATLAELGAVQVDYYLDEERAWALDVAELHRALGQARDHCRPRALCVINPGNPTGQVQTRECIEAVIRFAFEERLFLLADEVYQDNVYAAGSQFHSFKKVLMEMGPPYAGQQELASFHSTSKGYMGECGFRGGYVEVVNMDAAVQQQMLKLMSVRLCPPVPGQALLDLVVSPPAPTDPSFAQFQAEKQAVLAELAAKAKLTEQVFNEAPGISCNPVQGAMYSFPRVQLPPRAVERAQELGLAPDMFFCLRLLEETGICVVPGSGFGQREGTYHFRMTILPPLEKLRLLLEKLSRFHAKFTLEYS
As for B1, the Km in series [1] amounted to 18.1 mM.

B2: AST (aspartate 2-oxoglutarate aminotransferase) (Homo sapiens) (protein)
chain: APPSVFAEVPQAQPVLVFKLTADFREDPDPRKVNLGVGAYRTDDCHPWVLPVVKKVEQKIANDNSLNHEYLPILGLAEFRSCASRLALGDDSPALKEKRVGGVQSLGGTGALRIGADFLARWYNGTNNKNTPVYVSSPTWENHNAVFSAAGFKDIRSYRYWDAEKRGLDLQGFLNDLENAPEFSIVVLHACAHNPTGIDPTPEQWKQIASVMKHRFLFPFFDSAYQGFASGNLERDAWAIRYFVSEGFEFFCAQSFSKNFGLYNERVGNLTVVGKEPESILQVLSQMEKIVRITWSNPPAQGARIVASTLSNPELFEEWTGNVKTMADRILTMRSELRARLEALKTPGTWNHITDQIGMFSFTGLNPKQVEYLVNEKHIYLLPSGRINVSGLTTKNLDYVATSIHEAVTKIQ
Take B2: the Km is 0.91 mM in series [2] (other: 0.2 mM 2-oxoglutarate) and 10 mM in series [2] (other: 15 mM 2-oxoglutarate).

The record behind these values is patent US4235962A, “Combination kit for transaminase assay of a body fluid” (The Dow Chemical Company, priority 1978, dated 1980).
